The target of one assay is T1, Acb2 (Tequatrovirus T4, UniProt P13314).
T1 construct: full-length, N-terminal 6xHis-hSUMO2 tag cleaved with hSENP2; expressed in E. coli
T1 sequence (P13314 1-88): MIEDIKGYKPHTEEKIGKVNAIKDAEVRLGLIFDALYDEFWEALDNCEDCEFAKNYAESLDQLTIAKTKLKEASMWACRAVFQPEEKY
In words: isothermal titration calorimetry. The format is binding. The settings on record: read-out: apparent Kd. In general terms: Isothermal titration calorimetry measures the heat released or taken up as one component is titrated into another.

Assay [1] deals with OptS from Klebsiella pneumoniae KP67 (minimal CRISPR polymerase, mCpol) (Klebsiella pneumoniae KP67). Briefly: crystal structure; apo KpOptS, 1.75 Å, four copies in the asymmetric unit; crystals from 8% PEG 4000, hanging drop, room temperature.
Assay [2] has the same target. Briefly: SEC; HiLoad 16/600 Superdex 200 pg, 20 mM HEPES pH 7.5, 250 mM KCl, 1 mM TCEP-KOH; elution volume compared with molecular weight standards.
For assay [3] the target is unchanged. In words: mass photometry; KpOptS at 50 nM in 20 mM HEPES pH 7.5, 250 mM KCl, room temperature; β-amylase as calibration standard.
The target in the next assay is T2, VnOptS (Vibrio navarrensis, UniProt A0A099LXT1).
T2 construct: gene EA26_14275; N-terminal His6 tag with or without hSUMO2; expressed in E. coli
The format is biochemical. Particulars: MnCl2 1 mM, MgSO4 10 mM, 20 mM HEPES-KOH pH 7.4, 100 mM NaCl; with ATP, GTP, UTP, CTP; from ATP and GTP.

The record followed here is PMC12657218, “The Panoptes system uses decoy cyclic nucleotides to defend against phage” (Nature, 2025).

For the compound `Nc1ncnc2c1ncn2[C@@H]1O[C@@H]2COP(=O)(O)O[C@@H]3[C@H](O)[C@@H](COP(=O)(O)O[C@H]2[C@H]1O)O[C@H]3n1cnc2c(N)ncnc21` [2′,3′-c-di-AMP], the Kd on Acb2 is around 62 nM.

“OptS from Klebsiella pneumoniae KP67 (minimal CRISPR polymerase, mCpol) (enzyme)”: the figures for the stoichiometry N in assay [1], in assay [2] and in assay [3] were 4, above 2 and 4, respectively.

In the case of `Nc1nc2c(ncn2[C@@H]2O[C@@H]3COP(=O)(O)O[C@@H]4[C@H](O)[C@@H](COP(=O)(O)O[C@H]3[C@H]2O)O[C@H]4n2cnc3c(N)ncnc32)c(=O)[nH]1` [3′,2′-cGAMP], the “HPLC and MS of products” value at VnOptS is listed as “The most abundant product of the in vitro reactions was a linkage isomer of cyclic GMP-AMP”.
